Values of other authors, collected in PMC7652413.

Target: SARS-CoV-2 spike protein RBD (Severe acute respiratory syndrome coronavirus 2) (UniProt P0DTC2)
Assay: SPR

Substance: CD147 (basigin) (from UniProt P35613)
- Kd: 0.185 µM
